Results on 2 molecules are retold here after US20030144483A1 (Bristol-Myers Squibb, published 2003).

Assay [1] concerns the target human FcγRI on cells (monocytes, IFN-γ-treated neutrophils, U937 cells) (human) (UniProt P12314). As to the kind of experiment: flow cytometry, FITC antibody on monocytes, average of duplicates.
Assay [2] concerns the target T1, soluble fusion protein consisting of the extracellular domain of human FcγRI and human IgM heavy chain … (human, UniProt P12314 16-292; P01871 106-453).
T1 construct: From supernatant of transiently transfected COS cells, captured on plates with goat anti-human IgM; also called FcRI/IgM fusion protein; FcγRI/IgM heavy chain fusion protein
As to the kind of experiment: ELISA on captured sFcγRI-µ, in excess human IgG1 lambda.
Method: The binding of the antibodies to antigen was measured by ELISA. Wells of a microtitre plate (Immunlon 1, Dynatech, Chantilly, Va.) were coated with 200 ng goat anti-human IgM antibodies (Sera-lab, Crawley Down, U.K.) in 100 μl 50 mM carbonate buffer pH 9.6 at 37° C. for at least one hour. Wells were emptied and washed once with PBST and blocked with 1% BSA in PBS at room temperature for thirty minutes. The wells were emptied and washed with PBST and Cos supernatant containing FcRI/IgM fusion protein was added and incubated for one hour at room temperature. Wells were then emptied and washed three times with PBST and test antibodies diluted in 1% BSA/PBS were added and incubated for one hour at room temperature. In addition, each well contained 2 μg human IgGI, lambda antibody (Sigma, Poole, U.K.) The wells were then emptied, washed three times with PBST and 40 ng peroxidase goat anti-human kappa constant region antibodies (Sera-Lab, Crawley Down, U.K.) in 100 μl 1% BSA/PBS added to each well. After incubation for one hour at room temperature, the wells were emptied, washed three time with PBST and 10 μl HPD substrate buffer was added.
The wells of a microtiter plate were coated with goat anti-human IgM antibodies (Sera-Lab, Crawley Down, U.K.) in 50 mM bicarbonate buffer, pH 9.6. […]

T1 sequence (P12314 other isoform, or with tags, fused parts or gaps): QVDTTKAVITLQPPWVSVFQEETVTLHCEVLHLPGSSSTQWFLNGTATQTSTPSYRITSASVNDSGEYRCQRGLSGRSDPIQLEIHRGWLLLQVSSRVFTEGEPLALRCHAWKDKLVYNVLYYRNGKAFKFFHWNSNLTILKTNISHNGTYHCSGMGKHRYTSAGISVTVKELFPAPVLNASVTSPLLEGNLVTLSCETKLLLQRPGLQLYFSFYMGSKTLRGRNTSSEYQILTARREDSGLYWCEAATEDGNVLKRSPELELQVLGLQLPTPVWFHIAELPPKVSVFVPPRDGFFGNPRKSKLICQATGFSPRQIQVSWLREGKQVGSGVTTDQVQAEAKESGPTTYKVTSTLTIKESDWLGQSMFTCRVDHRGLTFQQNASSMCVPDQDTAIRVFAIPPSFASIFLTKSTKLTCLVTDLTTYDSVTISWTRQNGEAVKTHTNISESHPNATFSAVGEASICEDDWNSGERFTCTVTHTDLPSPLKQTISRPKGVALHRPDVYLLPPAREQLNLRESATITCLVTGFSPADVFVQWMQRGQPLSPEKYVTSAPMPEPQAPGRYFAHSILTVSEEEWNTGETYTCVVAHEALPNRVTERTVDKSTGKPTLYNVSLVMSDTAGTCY
Sequence of human FcγRI on cells (monocytes, IFN-γ-treated neutrophils, U937 cells) (human) (P12314 16-374): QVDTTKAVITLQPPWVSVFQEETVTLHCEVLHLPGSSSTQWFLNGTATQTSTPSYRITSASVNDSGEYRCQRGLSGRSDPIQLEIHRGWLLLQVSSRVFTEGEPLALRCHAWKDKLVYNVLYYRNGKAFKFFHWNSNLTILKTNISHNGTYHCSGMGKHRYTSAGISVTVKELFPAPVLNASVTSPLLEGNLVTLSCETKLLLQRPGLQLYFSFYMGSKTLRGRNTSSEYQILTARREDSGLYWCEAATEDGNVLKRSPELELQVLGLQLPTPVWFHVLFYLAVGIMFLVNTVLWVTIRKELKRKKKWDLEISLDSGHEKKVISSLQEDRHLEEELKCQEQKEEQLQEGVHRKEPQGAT

In assay [1], “humanized mAb 22, KOL VH/REI Vκ mAb, designated H22 (antibody)” came in with an antibody sites per cell (monocytes) (antibody sites per cell) of 10500.

B1: humanized NEWM VH/REI Vκ mAb (antibody, human IgG1, V domains shown)
VH: QVQLQESGPGLVRPSQTLSLTCTVSGFIFSDNYMYWVRQPPGRGLEWIGTISDGGSYTYYPDSVKGRVTMLRDTSKNQFSLRLSSVTAADTAVYYCARGYYRYEGAMDYWGQGSLVTVSS
VL: DIQLTQSPSSLSASVGDRVTITCKSSQSVLYSSNQKNYLAWYQQKPGKAPKLLIYWASTRESGVPSRFSGSGSGTDFTFTISSLQPEDIATYYCHQYLSSWTFGQGTKVEIK
notes: Human IgG1 and human kappa constant regions; also called NEWM/REI based antibody; NMVK/HuVK
Turning to B1, in assay [2], the “fold lower affinity than the chimeric mAb” value is roughly 5 fold.
